The target in data set [1] is T1, RhamD from Azotobacter vinlandii (Azotobacter vinelandii, UniProt C1DMY1).
T1 sequence (C1DMY1 1-394): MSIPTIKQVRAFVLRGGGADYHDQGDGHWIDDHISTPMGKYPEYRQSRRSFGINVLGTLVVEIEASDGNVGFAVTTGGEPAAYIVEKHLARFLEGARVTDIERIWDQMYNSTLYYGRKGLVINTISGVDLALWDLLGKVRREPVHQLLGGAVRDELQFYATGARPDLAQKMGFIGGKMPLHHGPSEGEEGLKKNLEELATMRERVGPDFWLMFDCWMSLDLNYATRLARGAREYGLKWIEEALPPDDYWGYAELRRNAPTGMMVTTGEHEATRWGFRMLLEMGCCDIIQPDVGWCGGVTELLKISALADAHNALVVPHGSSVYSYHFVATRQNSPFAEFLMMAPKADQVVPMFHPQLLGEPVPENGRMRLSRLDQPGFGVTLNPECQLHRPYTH
Nature of the data set: dehydration activity. The note with it: kinetic data not shown. The format is biochemical.

Data set [2] has as its target RhamD from Gibberella zeae (Fusarium graminearum, UniProt D0VX14). The settings on record: kinetic data not shown.
Data set [3] concerns the molecule itself. In words: crystal structure.
Substrate in data set [4]: O=C(O)[C@H](O)[C@H](O)[C@@H](O)CO
Nature of the data set: dehydration. The data set is classed as biochemical, Escherichia coli. The note with it: 5 mM MgCl2, Tris-HCl pH 7.9 or K-Hepes pH 7.5, 25 °C.

Substrate in data set [5]: O=C(O)[C@H](O)[C@H](O)[C@@H](O)[C@@H](O)CO
In words: dehydration. The settings on record: 5 mM MgCl2, Tris-HCl pH 7.9 or K-Hepes pH 7.5, 25 °C. The data set is classed as biochemical, Escherichia coli.

Substrate in data set [6]: C[C@H](O)[C@H](O)[C@@H](O)[C@@H](O)C(=O)O
In words: dehydration. The settings on record: 5 mM MgCl2, Tris-HCl pH 7.9 or K-Hepes pH 7.5, 25 °C. The format is biochemical, Escherichia coli.

Data set [7] concerns the molecule itself. In words: crystal structure. This is another data set of the same source.
Substrate in data set [8]: O=C(O)[C@H](O)[C@H](O)[C@@H](O)CO
Nature of the data set: dehydration. The format is biochemical, Salmonella enterica. The note with it: 5 mM MgCl2, Tris-HCl pH 7.9 or K-Hepes pH 7.5, 25 °C.

Substrate in data set [9]: O=C(O)[C@H](O)[C@H](O)[C@@H](O)[C@@H](O)CO
In words: dehydration. The data set is classed as biochemical, Salmonella enterica. The settings on record: 5 mM MgCl2, Tris-HCl pH 7.9 or K-Hepes pH 7.5, 25 °C.

Substrate in data set [10]: C[C@H](O)[C@H](O)[C@@H](O)[C@@H](O)C(=O)O
In words: dehydration. The note with it: 5 mM MgCl2, Tris-HCl pH 7.9 or K-Hepes pH 7.5, 25 °C. The data set is classed as biochemical, Salmonella enterica.

This is an account of results in article PMC2562705 (Biochemistry, 2008).

Where two headings read alike, the source gives them in different places.

The term stoichiometry N denotes the number of molecules, sites or subunits per partner or assembly. As a reminder, the Km is the substrate concentration at which the rate is half of its maximum. As a reminder, the kcat is the maximal rate divided by the concentration of active sites. A word on the kcat/Km: it is the second-order rate constant that governs catalysis at low substrate concentration.

RhamD from Gibberella zeae, sequence (D0VX14 1-450): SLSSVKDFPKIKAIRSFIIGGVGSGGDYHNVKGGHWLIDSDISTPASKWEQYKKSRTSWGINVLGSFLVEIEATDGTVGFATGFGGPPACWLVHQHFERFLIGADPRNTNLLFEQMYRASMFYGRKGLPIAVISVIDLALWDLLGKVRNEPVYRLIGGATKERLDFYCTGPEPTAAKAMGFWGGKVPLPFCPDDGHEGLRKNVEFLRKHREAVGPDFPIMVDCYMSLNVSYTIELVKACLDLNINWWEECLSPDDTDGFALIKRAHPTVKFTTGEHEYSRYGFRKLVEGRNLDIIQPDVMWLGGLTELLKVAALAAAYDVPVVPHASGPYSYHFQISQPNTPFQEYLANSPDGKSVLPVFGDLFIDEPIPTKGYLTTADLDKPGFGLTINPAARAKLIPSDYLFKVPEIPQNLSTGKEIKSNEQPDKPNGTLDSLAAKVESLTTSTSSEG

As for `C[C@H](O)[C@H](O)[C@@H](O)[C@@H](O)C(=O)O` [L-rhamnonate], the dehydration activity result in data set [1] and in [2] was “Each of these homologues catalyzes the RhamD reaction” each time.

B1: L-rhamnonate dehydratase (RhamD) from Escherichia coli K-12 (enzyme, E. coli K-12)
chain: MTLPKIKQVRAWFTGGATAEKGAGGGDYHDQGANHWIDDHIATPMSKYRDYEQSRQSFGINVLGTLVVEVEAENGQTGFAVSTAGEMGCFIVEKHLNRFIEGKCVSDIKLIHDQMLSATLYYSGSGGLVMNTISCVDLALWDLFGKVVGLPVYKLLGGAVRDEIQFYATGARPDLAKEMGFIGGKMPTHWGPHDGDAGIRKDAAMVADMREKCGEDFWLMLDCWMSQDVNYATKLAHACAPYNLKWIEECLPPQQYESYRELKRNAPVGMMVTSGEHHGTLQSFRTLSETGIDIMQPDVGWCGGLTTLVEIAAIAKSRGQLVVPHGSSVYSHHAVITFTNTPFSEFLMTSPDCSTMRPQFDPILLNEPVPVNGRIHKSVLDKPGFGVELNRDCNLKRPYSH
For B1, the “stoichiometry N” value in data set [3] was 8. The Michaelis constant (Km) is 2000 ± 300 µM in data set [4], 150 ± 60 µM in [5] and 150 ± 70 µM in data set [6]. For the same molecule, the kcat was 0.6 ± 0.03 s⁻¹ in data set [4], 0.2 ± 0.1 s⁻¹ in data set [5] and 3.2 ± 0.2 s⁻¹ in data set [6]. The results for the kcat/Km in data set [4], in data set [5] and in [6] were 300 M⁻¹ s⁻¹, 1300 M⁻¹ s⁻¹ and 21000 M⁻¹ s⁻¹, respectively.

B2: YfaW / ecRhamD (RhamD from E. coli K-12) (Escherichia coli K-12; H277N) (protein)
chain: MTLPKIKQVRAWFTGGATAEKGAGGGDYHDQGANHWIDDHIATPMSKYRDYEQSRQSFGINVLGTLVVEVEAENGQTGFAVSTAGEMGCFIVEKHLNRFIEGKCVSDIKLIHDQMLSATLYYSGSGGLVMNTISCVDLALWDLFGKVVGLPVYKLLGGAVRDEIQFYATGARPDLAKEMGFIGGKMPTHWGPHDGDAGIRKDAAMVADMREKCGEDFWLMLDCWMSQDVNYATKLAHACAPYNLKWIEECLPPQQYESYRELKRNAPVGMMVTSGENHGTLQSFRTLSETGIDIMQPDVGWCGGLTTLVEIAAIAKSRGQLVVPHGSSVYSHHAVITFTNTPFSEFLMTSPDCSTMRPQFDPILLNEPVPVNGRIHKSVLDKPGFGVELNRDCNLKRPYSH
As to B2, in data set [6], the Michaelis constant (Km) stood at 8800 ± 900 µM, the kcat was 0.09 ± 0.01 s⁻¹ and the kcat/Km amounted to 10 M⁻¹ s⁻¹.

B3: YfaW / ecRhamD (RhamD from E. coli K-12) (Escherichia coli K-12; H325N) (protein)
chain: MTLPKIKQVRAWFTGGATAEKGAGGGDYHDQGANHWIDDHIATPMSKYRDYEQSRQSFGINVLGTLVVEVEAENGQTGFAVSTAGEMGCFIVEKHLNRFIEGKCVSDIKLIHDQMLSATLYYSGSGGLVMNTISCVDLALWDLFGKVVGLPVYKLLGGAVRDEIQFYATGARPDLAKEMGFIGGKMPTHWGPHDGDAGIRKDAAMVADMREKCGEDFWLMLDCWMSQDVNYATKLAHACAPYNLKWIEECLPPQQYESYRELKRNAPVGMMVTSGEHHGTLQSFRTLSETGIDIMQPDVGWCGGLTTLVEIAAIAKSRGQLVVPNGSSVYSHHAVITFTNTPFSEFLMTSPDCSTMRPQFDPILLNEPVPVNGRIHKSVLDKPGFGVELNRDCNLKRPYSH
For the molecule B3, in data set [6], the Km stood at 300 ± 30 µM, the turnover number (kcat) was 0.0005 ± 0.0001 s⁻¹ and the catalytic efficiency (kcat/Km) was 1.6 M⁻¹ s⁻¹.

B4: L-rhamnonate dehydratase (RhamD) from Salmonella typhimurium LT2 (enzyme)
chain: ENIMTLPKIKHVRAWFIGGATAEKGAGGGDYHDQGGNHWIDDHIATPMSKYRDYEQSRQSFGINVLGTLIVEVEAENRQTGFAVSTAGEMGCFIVEKHLNRFIEGKCVSDIKLIHDQMLGATMYYSGSGGLVMNTISCVDLALWDLFGKVVGLPVYKLLGGAVRDEIQFYATGARPDLAKEMGFIGGKMPTHWGPHDGDAGIRKDAAMVADMREKCGPDFWLMLDCWMSQDVNYATKLAHACAPFNLKWIEECLPPQQYEGYRELKRNAPAGMMVTSGEHHGTLQSFRTLAETGIDIMQPDVGWCGGLTTLVEIAALAKSRGQLVVPHGSSVYSHHAVITFTNTPFSEFLMTSPDCSTLRPQFDPILLDEPVPVNGRIHKSVLDKPGFGVELNRDCHLKRPYSH
In the case of B4, the “stoichiometry N” value in [7] was 8.

B5: stRhamD (RhamD from S. typhimurium LT2) (Salmonella enterica subsp. enterica serovar Typhimurium str. LT2) (protein)
chain: MENIMTLPKIKHVRAWFIGGATAEKGAGGGDYHDQGGNHWIDDHIATPMSKYRDYEQSRQSFGINVLGTLIVEVEAENRQTGFAVSTAGEMGCFIVEKHLNRFIEGKCVSDIKLIHDQMLGATMYYSGSGGLVMNTISCVDLALWDLFGKVVGLPVYKLLGGAVRDEIQFYATGARPDLAKEMGFIGGKMPTHWGPHDGDAGIRKDAAMVADMREKCGPDFWLMLDCWMSQDVNYATKLAHACAPFNLKWIEECLPPQQYEGYRELKRNAPAGMMVTSGEHHGTLQSFRTLAETGIDIMQPDVGWCGGLTTLVEIAALAKSRGQLVVPHGSSVYSHHAVITFTNTPFSEFLMTSPDCSTLRPQFDPILLDEPVPVNGRIHKSVLDKPGFGVELNRDCHLKRPYSH
With B5, in [8], the Km was determined as 1600 ± 1200 µM, the kcat was determined as 0.05 ± 0.03 s⁻¹ and the catalytic efficiency (kcat/Km) stood at 30 M⁻¹ s⁻¹. Moreover, in data set [9], the Km stood at 60 ± 40 µM, the kcat is 0.1 ± 0.06 s⁻¹ and the specificity constant (kcat/Km) turned out to be 1700 M⁻¹ s⁻¹. In data set [10], the Michaelis-Menten constant (Km) was 250 ± 80 µM, the kcat worked out at 3.9 ± 1.6 s⁻¹ and the specificity constant (kcat/Km) worked out at 16000 M⁻¹ s⁻¹.
